Measurements taken from the Human Domainome abundance scans (Beltran et al. 2025).

B1: SWI/SNF complex subunit SMARCC2, residues 599 to 641; numbered along this chain, Q8TAQ2 (parent)
chain: REWTEQETLLLLEALEMYKDDWNKVSEHVGSRTQDECILHFLR

Variants of: B1
Assay: abundance fitness (aPCA) (normalised: wild type 0, dead -1); higher = more abundant; growth selection in yeast, the domain comes from the species named
Details: Homo sapiens

Abundance fitness, by site and new letter:
E16: G -0.152; I -0.759; T -0.091; L -0.698; R 0.062; F -0.372; Y -0.54; V -0.501; Q -0.186; M -0.439; H -0.294; K -0.059; S -0.301; P -0.018
Y18: L -0.731; R -0.626; N -0.003; H 0.106; M -0.48; G -0.163; S -0.286; T -0.383; A -0.375; P -0.637; C -0.501; Q -0.478; W -0.093; V -0.419; F -0.417; I -0.152; D -0.283
L10: H -0.115; C -0.057; G -0.171; A -0.424; I -0.35; K 0.028; E 0.346; F -0.27; W -0.325; T -0.226; M 0.03; S -0.009; P -0.422; Y -0.024; V 0.029; D -0.224; R -0.208; Q -0.018; N -0.195
A14: S -0.181; H -1.05; N -0.57; C -0.804; K -0.844; V -1.08; F -1.05; W -1.39; T -0.864; P -0.987; G 0.062; D -0.806; R -0.741; M -0.991; E -0.776; Q -0.797; L -0.778
E13: S -0.304; F -0.887; N -0.415; W -0.697; H -0.264; A -0.028; V -0.469; Q -0.34; L -0.598; R -0.172; G -0.215; T -0.181; D -0.182; M -0.222; I -0.742
L11: P -1.19; D -0.801; M -0.357; S -0.788; A -0.364; T -0.412; E -0.628; R -0.635; N -0.575; I -0.564; C -0.17; H -0.457; K -0.588; Q -0.556; W -0.619
L12: K 0.204; C -0.351; W -0.145; S -0.169
K19: W -0.526; C -0.314; R -0.115; G -0.235; D -0.143; T -0.003; N 0.29; E 0.019; L -0.458; S -0.287; H -0.272; F -0.151; V -0.256; P -0.052; M -0.332; A -0.26; I -0.303
L15: D 0.232; V 0.336; Y 0.278; H 0.551; N -0.017; G -0.067; A 0.409; T 0.301; M 0.436; R 0.454; K 0.586; W 0.04; C 0.087; F -0.211; E 0.241
M17: S -0.167; R 0.118; G -0.154; L 0.052; K 0.077; C -0.283; H -0.348; A -0.224; V -0.017; D -0.035; Q 0.013; T -0.054; P -0.501; N 0.027; Y -0.084; W -0.118
L9: I 0.11; F -0.16; G 0.147; E -0.016; S 0.144; M 0.2; C 0.134; V -0.023; Q 0.271; N 0.099; D -0.093; P -0.307; T 0.243; Y -0.024; K 0.308; R 0.168; H 0.247; W -0.118
